The source of these data is US20250352667A1.

Experiment [1] deals with KEAP1 (wild-type full-length), His-tagged (human) (UniProt Q14145). Put plainly: AlphaScreen; mean over 9.6, 19.2 and 38.4 nM NRF2; 150 nM His-KEAP1; against wild-type NRF2 isoform 2. In general terms: Alpha assays give light when donor and acceptor beads are brought close together.
For experiment [2] the target is unchanged. Put plainly: AlphaScreen, all variants on one plate; optimal condition (19.2 nM NRF2), KEAP1 150 nM; relative to NRF2 (WT) isoform 2.
Experiment [3] shares this target. Put plainly: AlphaScreen; mean over 9.6, 19.2 and 38.4 nM NRF2; 150 nM His-KEAP1; against wild-type NRF2 isoform 2 = 100%.
Experiment [4] has the same target. Put plainly: AlphaScreen; 9.6 nM FLAG-NRF2, 150 nM His-KEAP1; Repeat 2 (same value as in Table 23).
Experiment [5] has the same target. Put plainly: AlphaScreen; 38.4 nM FLAG-NRF2, 150 nM His-KEAP1 (same value as in Table 23).
Experiment [6] has the same target. Put plainly: AlphaScreen; 19.2 nM FLAG-NRF2, 150 nM His-KEAP1; against wild-type NRF2 isoform 2 = 100%.
Experiment [7] has the same target. Put plainly: AlphaScreen, all variants on one plate; upper condition (38.4 nM NRF2), KEAP1 150 nM; relative to NRF2 (WT) isoform 2.
Experiment [8] shares this target. Put plainly: AlphaScreen; 9.6 nM FLAG-NRF2, 150 nM His-KEAP1; against wild-type NRF2 isoform 2 = 100%.
For experiment [9] the target is unchanged. Put plainly: AlphaScreen; 19.2 nM FLAG-NRF2, 150 nM His-KEAP1; Repeat 1 (same value as in Table 23).
The target is the same in experiment [10]. Put plainly: AlphaScreen; 9.6 nM FLAG-NRF2, 150 nM His-KEAP1; Repeat 1 (same value as in Table 23).
For experiment [11] the target is unchanged. Put plainly: AlphaScreen; 153.6 nM FLAG-NRF2, 150 nM His-KEAP1; signal against NRF2 only.
Experiment [12] shares this target. Put plainly: AlphaScreen; 9.6 nM FLAG-NRF2, 150 nM His-KEAP1 (same value as in Table 23).
The target is the same in experiment [13]. Put plainly: AlphaScreen; 38.4 nM FLAG-NRF2, 150 nM His-KEAP1; against wild-type NRF2 isoform 2 = 100%.
Experiment [14] has the same target. Put plainly: AlphaScreen, all variants on one plate; lower condition (9.6 nM NRF2), KEAP1 150 nM; relative to NRF2 (WT) isoform 2.
For experiment [15] the target is unchanged. Put plainly: AlphaScreen; standard deviation of three conditions; against wild-type NRF2 isoform 2.
Experiment [16] has the same target. Put plainly: AlphaScreen; 9.6 nM FLAG-NRF2, 150 nM His-KEAP1 (same value as in Table 22).
Experiment [17] has the same target. Put plainly: AlphaScreen; 9.6 nM FLAG-NRF2, 150 nM His-KEAP1; Repeat 1 (same value as in Table 22).
Experiment [18] shares this target. Put plainly: AlphaScreen; 9.6 nM FLAG-NRF2, 150 nM His-KEAP1; wild type set to 100%.
For experiment [19] the target is unchanged. Put plainly: AlphaScreen, all variants on one plate; optimal condition (19.2 nM NRF2), KEAP1 150 nM; the reference itself.
The target is the same in experiment [20]. Put plainly: AlphaScreen; 19.2 nM FLAG-NRF2, 150 nM His-KEAP1 (same value as in Table 22).
The target is the same in experiment [21]. Put plainly: AlphaScreen; 38.4 nM FLAG-NRF2, 150 nM His-KEAP1; Repeat 2 (same value as in Table 22).
Experiment [22] shares this target. Put plainly: AlphaScreen, all variants on one plate; average of three conditions, KEAP1 150 nM; the reference itself.
The target is the same in experiment [23]. Put plainly: AlphaScreen; 38.4 nM FLAG-NRF2, 150 nM His-KEAP1; wild type set to 100%.
For experiment [24] the target is unchanged. Put plainly: AlphaScreen; 19.2 nM FLAG-NRF2, 150 nM His-KEAP1; Repeat 1 (same value as in Table 22).
The target is the same in experiment [25]. Put plainly: AlphaScreen; 19.2 nM FLAG-NRF2, 150 nM His-KEAP1; Repeat 2 (same value as in Table 22).
The target is the same in experiment [26]. Put plainly: AlphaScreen; 9.6 nM FLAG-NRF2, 150 nM His-KEAP1; Repeat 2 (same value as in Table 22).
Experiment [27] has the same target. Put plainly: AlphaScreen; mean over 9.6, 19.2 and 38.4 nM NRF2; 150 nM His-KEAP1.

Chain of KEAP1 (wild-type full-length), His-tagged (human) (Q14145 2-624 limits assumed, form in doubt): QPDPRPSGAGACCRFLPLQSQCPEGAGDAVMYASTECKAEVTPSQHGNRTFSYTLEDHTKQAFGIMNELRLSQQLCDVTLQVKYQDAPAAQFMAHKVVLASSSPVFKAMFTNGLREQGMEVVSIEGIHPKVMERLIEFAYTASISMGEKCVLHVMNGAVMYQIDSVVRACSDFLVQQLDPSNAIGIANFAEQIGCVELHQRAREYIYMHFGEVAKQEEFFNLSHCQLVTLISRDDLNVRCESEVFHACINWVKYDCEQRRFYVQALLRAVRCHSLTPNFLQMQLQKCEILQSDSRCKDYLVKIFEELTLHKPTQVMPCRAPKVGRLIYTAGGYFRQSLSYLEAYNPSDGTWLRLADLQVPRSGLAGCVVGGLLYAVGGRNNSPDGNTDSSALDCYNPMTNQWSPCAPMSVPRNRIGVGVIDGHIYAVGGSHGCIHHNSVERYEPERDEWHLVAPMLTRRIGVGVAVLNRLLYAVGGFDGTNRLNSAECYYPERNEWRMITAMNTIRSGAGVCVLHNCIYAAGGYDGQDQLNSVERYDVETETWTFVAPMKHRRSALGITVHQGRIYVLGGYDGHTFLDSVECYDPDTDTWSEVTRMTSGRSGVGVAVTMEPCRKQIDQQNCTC

As for “NRF2 isoform 2 (E63G/E66G full-length), FLAG-tagged”, the Avg. Reduction in Binding in [1] amounted to 69.1%. Further, the % Disruption in Binding in [2] was determined as 59.7%; in experiment [7], 61.9%; in experiment [14], 63.4%. Also, in [3], the Average Binding worked out at 30.9%. Besides, the A-counts in experiment [4] amounted to 1520 A-counts; in experiment [9], 1700 A-counts; in experiment [10], 1670 A-counts. Besides, the values for the S/N in experiment [5], in experiment [11] and in experiment [12] were 1.8, 1.5 and 1.8, respectively. The Binding Percentage (%) in experiment [6] is 19.2%; in experiment [8], 35.7%; in experiment [13], 37.8%. In experiment [15], the Reported Value (standard deviation of reduction in binding) came to 10.2%.
Regarding “NRF2 isoform 2 (wild-type full-length), FLAG-tagged”, the S/N in experiment [16] is 3.7; in [20], 4.2; in experiment [11], 2.8. The A-counts in experiment [17] is 2310 A-counts; in [21] it was 3460 A-counts; in experiment [24], 3480 A-counts; in experiment [25], 3260 A-counts; in experiment [26], 2590 A-counts. Moreover, the Binding Percentage (%) in [18] and in experiment [23] was 100% throughout. Moreover, the % Disruption in Binding in [19] stood at 0%. The same substance came in with a % Disruption in Binding (Reported Values) in experiment [22] of 0%. In experiment [27], this substance came in with an Average Binding of 100%.
